{"source": "paper PMC12669776", "assay_in_all_cases": "EMSA", "key": {"[1]": {"tested_on": "PRC2-AEBP2L(TEV)-JARID2, uncleaved (Homo sapiens)", "conditions": "no TEV; Hill 2.4 ± 0.2; CpG24 EMSA/FA: 50 mM Tris pH 7.5, 100 mM KCl (FA 25/50/100), 0.05% NP40, 0.1 mg/ml BSA, 2 mM 2-ME, 30 C; CpG46 FA: 20 mM Tris pH 8.0, 100 mM NaCl, 0.1 mM …"}, "[2]": {"tested_on": "PRC2-AEBP2L-JARID2 wild-type (Homo sapiens), Q6ZN18-2+Q92833+Q15910-2+Q15022+O75530+Q09028", "conditions": "2.5 mM Mg2+, 100 mM NaCl; CpG24 EMSA/FA: 50 mM Tris pH 7.5, 100 mM KCl (FA 25/50/100), 0.05% NP40, 0.1 mg/ml BSA, 2 mM 2-ME, 30 C; CpG46 FA: 20 mM Tris pH 8.0, 100 mM NaCl, 0.1 mM …"}, "[3]": {"tested_on": "PRC2-AEBP2L(TEV)-JARID2 cleaved with TEV (Homo sapiens)", "conditions": "with TEV; Hill 2.7 ± 0.4; CpG24 EMSA/FA: 50 mM Tris pH 7.5, 100 mM KCl (FA 25/50/100), 0.05% NP40, 0.1 mg/ml BSA, 2 mM 2-ME, 30 C; CpG46 FA: 20 mM Tris pH 8.0, 100 mM NaCl, 0.1 mM …"}, "[4]": {"tested_on": "PRC2-AEBP2L mt1A2A-JARID2 E37A;E38A;E39A;E40A;E41A;E42A;E43A;E44A;E45A;E46A;E47A;E48A;E95A;D96A;E97A;D98A;E99A;E100A;E101A;D102A;D103A;E104A;E105A;E106A;E107A;D108A;E109A (Homo sapiens), Q6ZN18-2+Q92833+Q15910-2+Q15022+O75530+Q09028", "conditions": "2.5 mM Mg2+, 100 mM NaCl; CpG24 EMSA/FA: 50 mM Tris pH 7.5, 100 mM KCl (FA 25/50/100), 0.05% NP40, 0.1 mg/ml BSA, 2 mM 2-ME, 30 C; CpG46 FA: 20 mM Tris pH 8.0, 100 mM NaCl, 0.1 mM …"}}, "data": [{"substance": "NCP182", "values": [{"measurement": "Kd", "setting": "[1]", "result": 24.8, "unit": "nM"}, {"measurement": "Kd", "setting": "[2]", "result": 33, "unit": "nM"}, {"measurement": "Kd", "setting": "[3]", "result": 18.7, "unit": "nM"}, {"measurement": "Kd", "setting": "[4]", "result": 15.6, "unit": "nM"}]}]}
